Assay results taken from PMC9010765.

Legend:
[1] = target: human myeloperoxidase (human) (UniProt P05164); experiment: SPR; BIAcore 3000; MPO immobilised on a CM5 chip through primary amino groups; lipid-poor apoA-I 0.5 nM to 3 uM flowed over at 20 ul/min in 10 mM PBS pH 7.4; 1:1 binding with drifting baseline model; apparent KD
[2] = target: human myeloperoxidase (human); experiment: SPR; BIAcore 3000; MPO immobilised on a CM5 chip through primary amino groups; apoA-I 0.5 nM to ~3000 nM flowed over at 20 uL/min in 10 mM PBS, pH 7.4; fit to 1:1 binding with a drifting baseline; apparent KD
Chain of human myeloperoxidase (human) (P05164 165-745): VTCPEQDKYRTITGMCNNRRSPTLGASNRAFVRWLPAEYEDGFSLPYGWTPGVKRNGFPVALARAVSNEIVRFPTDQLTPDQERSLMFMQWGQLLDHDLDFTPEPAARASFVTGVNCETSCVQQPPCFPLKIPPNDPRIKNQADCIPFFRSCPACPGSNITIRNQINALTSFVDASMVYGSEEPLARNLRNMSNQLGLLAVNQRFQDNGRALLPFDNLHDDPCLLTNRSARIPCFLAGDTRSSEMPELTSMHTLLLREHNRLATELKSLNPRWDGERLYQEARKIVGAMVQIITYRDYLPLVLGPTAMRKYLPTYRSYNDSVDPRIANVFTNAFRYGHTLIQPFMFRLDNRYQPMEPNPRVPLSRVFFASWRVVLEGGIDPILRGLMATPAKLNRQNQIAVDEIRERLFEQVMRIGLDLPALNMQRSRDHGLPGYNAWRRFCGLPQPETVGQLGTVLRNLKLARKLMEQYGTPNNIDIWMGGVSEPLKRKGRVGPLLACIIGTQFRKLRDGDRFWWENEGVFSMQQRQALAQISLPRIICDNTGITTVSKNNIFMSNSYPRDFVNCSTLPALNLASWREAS

Kd [1]: 75 nM
Kd [2]: 75.1 nM
koff [2]: 0.00377 s⁻¹
kon [2]: 50200 M⁻¹ s⁻¹
Substance: recombinant human apolipoprotein A-I, lipid-poor (from UniProt P02647 19-267) (natural protein)
